Experimental data: patent US20120315284

T1: GST-c-Jun, P05412
T1 chain: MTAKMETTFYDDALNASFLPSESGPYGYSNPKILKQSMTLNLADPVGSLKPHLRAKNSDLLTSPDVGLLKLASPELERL

B1: MKK7 in cell lysate (immunoprecipitated with MKK7 antibody; the cells' own MKK7) (protein)
chain: AASSLEQKLSRLEAKLKQENREARRRIDLNLDISPQRPRPTLQLPLANDGGSRSPSSESSPQHPTPPARPRHMLGLPSTLFTPRSMESIEIDQKLQEIMKQTGYLTIGGQRYQAEINDLENLGEMGSGTCGQVWKMRFRKTGHVIAVKQMRRSGNKEENKRILMDLDVVLKSHDCPYIVQCFGTFITNTDVFIAMELMGTCAEKLKKRMQGPIPERILGKMTVAIVKALYYLKEKHGVIHRDVKPSNILLDERGQIKLCDFGISGRLVDSKAKTRSAGCAAYMAPERIDPPDPTKPDYDIRADVWSLGISLVELATGQFPYKNCKTDFEVLTKVLQEEPPLLPGHMGFSGDFQSFVKDCLTKDHRKRPKYNKLLEHSFIKRYETLEVDVASWFKDVMAKTESPRTSGVLSQPHLPFFR
B2: recombination GST-JNK1 (protein)
chain: MSRSKRDNNFYSVEIGDSTFTVLKRYQNLKPIGSGAQGIVCAAYDAILERNVAIKKLSRPFQNQTHAKRAYRELVLMKCVNHKNIIGLLNVFTPQKSLEEFQDVYIVMELMDANLCQVIQMELDHERMSYLLYQMLCGIKHLHSAGIIHRDLKPSNIVVKSDCTLKILDFGLARTAGTSFMMTPYVVTRYYRAPEVILGMGYKENVDLWSVGCIMGEMVCHKILFPGRDYIDQWNKVIEQLGTPCPEFMKKLQPTVRTYVENRPKYAGYSFEKLFPDVLFPADSEHNKLKASQARDLLSKMLVIDASKRISVDEALQHPYINVWYDPSEAEAPPPKIPDKQLDEREHTIEEWKELIYKEVMDLEERTKNGVIRGQPSPLAQVQQ

How the values were obtained:
[1] = target: recombination GST-JNK1, P45983
[2] = target: T1, GST-c-Jun, P05412

| Protein | in vitro immune-co-kinase analysis (32P phosphorylation by immunoprecipitated MKK7) [1] | in vitro immune-co-kinase analysis (32P phosphorylation) [2] |
| --- | --- | --- |
| B1 | MKK7 was activated by depletion of TIP41 and phosphorylated GST-JNK1, a substrate of MKK7 |  |
| B2 |  | the activated JNK1 phosphorylated GST-c-jun protein, a substrate of JNK pathway |
